Earlier results as cited in publication PMC3726369.
Like-named read-outs stand apart in the source and are kept apart here.

Tests used:
[1] = biological target: LH receptor (Rattus norvegicus) (UniProt P16235)
[2] = biological target: LH receptor (Homo sapiens) (UniProt P22888)
[3] = biological target: LH receptor (Homo sapiens) (UniProt P22888); remark: listed apart in the source

Sequence of UniProt P22888 (P22888 27-699): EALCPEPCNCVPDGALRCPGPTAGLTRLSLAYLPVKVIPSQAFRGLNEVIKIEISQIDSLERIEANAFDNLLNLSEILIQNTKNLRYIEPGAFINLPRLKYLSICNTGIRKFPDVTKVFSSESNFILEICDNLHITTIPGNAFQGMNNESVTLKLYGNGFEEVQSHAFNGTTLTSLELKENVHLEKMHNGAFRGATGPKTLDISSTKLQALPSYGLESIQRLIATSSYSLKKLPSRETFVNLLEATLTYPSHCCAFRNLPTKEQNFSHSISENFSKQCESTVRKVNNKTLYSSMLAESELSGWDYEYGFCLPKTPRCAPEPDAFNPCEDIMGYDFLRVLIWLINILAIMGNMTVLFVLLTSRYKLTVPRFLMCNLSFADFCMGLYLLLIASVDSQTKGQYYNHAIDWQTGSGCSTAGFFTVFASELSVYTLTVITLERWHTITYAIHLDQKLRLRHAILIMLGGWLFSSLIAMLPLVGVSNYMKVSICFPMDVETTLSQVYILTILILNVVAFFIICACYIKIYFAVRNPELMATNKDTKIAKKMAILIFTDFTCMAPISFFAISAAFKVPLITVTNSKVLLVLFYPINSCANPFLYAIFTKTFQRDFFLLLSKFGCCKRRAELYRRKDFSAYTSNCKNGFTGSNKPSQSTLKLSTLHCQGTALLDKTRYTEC
Sequence of UniProt P16235 (P16235 27-700): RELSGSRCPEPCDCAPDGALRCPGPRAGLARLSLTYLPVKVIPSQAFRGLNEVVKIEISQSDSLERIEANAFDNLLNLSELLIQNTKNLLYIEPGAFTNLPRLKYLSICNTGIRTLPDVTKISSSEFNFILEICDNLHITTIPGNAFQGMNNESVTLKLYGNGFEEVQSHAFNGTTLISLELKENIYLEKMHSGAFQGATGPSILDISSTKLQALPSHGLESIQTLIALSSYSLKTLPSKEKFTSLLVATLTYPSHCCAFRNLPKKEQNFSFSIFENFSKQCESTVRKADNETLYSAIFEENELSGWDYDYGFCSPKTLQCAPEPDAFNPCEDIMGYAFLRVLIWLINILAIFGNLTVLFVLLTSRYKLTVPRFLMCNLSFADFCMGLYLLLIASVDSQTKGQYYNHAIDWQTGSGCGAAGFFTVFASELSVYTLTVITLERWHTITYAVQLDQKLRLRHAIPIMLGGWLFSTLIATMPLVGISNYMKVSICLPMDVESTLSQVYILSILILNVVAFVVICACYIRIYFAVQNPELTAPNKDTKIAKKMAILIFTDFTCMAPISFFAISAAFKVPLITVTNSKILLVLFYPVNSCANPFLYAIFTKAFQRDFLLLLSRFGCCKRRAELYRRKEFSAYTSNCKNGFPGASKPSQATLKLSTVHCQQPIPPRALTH

Substance	Kd [1] [nM]	Kd [2] [nM]	Kd [3] [nM]
LH (from UniProt P01215)	0.09	9	
hCG (from UniProt P01215)			4
